Source: publication PMC2720046 (Science (New York, N.Y.), 2008)

What was measured:
CEP55-EABR [1] = format: binding; details: pull-down by GST-ALIX fragment with TSG101 peptide competitor
CEP55-EABR [2] = assay: Analytical ultracentrifugation of CEP55-EABR to peptide mixtures; format: binding; details: TSG101 peptide added to preformed 2:1 CEP55:ALIX peptide complex
[3] = molecular target: T1, CEP55-EABR (residues 160−217) (Homo sapiens, UniProt Q53EZ4); assay: ITC titration of peptide into CEP55-EABR solution; format: binding; details: compared with ALIX peptide
T1 sequence (Q53EZ4 160-217): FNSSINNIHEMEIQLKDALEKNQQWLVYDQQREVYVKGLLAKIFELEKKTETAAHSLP

midbodies in HeLa cells = assay: Midbody localization of wild-type and mutant GFP-ALIX expressed in HeLa cells; format: cell-based; details: full-length GFP-tagged ALIX, α−tubulin staining
TSG101 154-166 = molecular target: T2, TSG101 154-166 (Homo sapiens, UniProt Q99816); assay: ITC
T2 chain: QATGPPNTSYMPG

ALIX 797-809 = molecular target: T3, ALIX 797-809 (Homo sapiens, UniProt Q8WUM4); assay: ITC
T3 chain: QAQGPPYPTYPGY

TSG101 peptide: related TSG101 peptide (residues 154 to 166) (QATGPPNTSYMPG; UniProt Q99816 154-166, looked up, fragment)
competition for CEP55-EABR binding site (CEP55-EABR [1]): the two peptides interact with the same site | competition with ALIX peptide for CEP55 site (CEP55-EABR [2]): a peak corresponding to the equivalent amount of uncomplexed peptide is formed, suggesting that TSG101 and ALIX compete for the same site | affinity relative to ALIX peptide [3]: essentially the same affinity and stoichiometry

B1: ALIX^Y806A: full-length ALIX mutant tagged with GFP (protein, UniProt Q8WUM4 1-868, looked up, variant Y806A)
chain: MATFISVQLKKTSEVDLAKPLVKFIQQTYPSGGEEQAQYCRAAEELSKLRRAAVGRPLDKHEGALETLLRYYDQICSIEPKFPFSENQICLTFTWKDAFDKGSLFGGSVKLALASLGYEKSCVLFNCAALASQIAAEQNLDNDEGLKIAAKHYQFASGAFLHIKETVLSALSREPTVDISPDTVGTLSLIMLAQAQEVFFLKATRDKMKDAIIAKLANQAADYFGDAFKQCQYKDTLPKEVFPVLAAKHCIMQANAEYHQSILAKQQKKFGEEIARLQHAAELIKTVASRYDEYVNVKDFSDKINRALAAAKKDNDFIYHDRVPDLKDLDPIGKATLVKSTPVNVPISQKFTDLFEKMVPVSVQQSLAAYNQRKADLVNRSIAQMREATTLANGVLASLNLPAAIEDVSGDTVPQSILTKSRSVIEQGGIQTVDQLIKELPELLQRNREILDESLRLLDEEEATDNDLRAKFKERWQRTPSNELYKPLRAEGTNFRTVLDKAVQADGQVKECYQSHRDTIVLLCKPEPELNAAIPSANPAKTMQGSEVVNVLKSLLSNLDEVKKEREGLENDLKSVNFDMTSKFLTALAQDGVINEEALSVTELDRVYGGLTTKVQESLKKQEGLLKNIQVSHQEFSKMKQSNNEANLREEVLKNLATAYDNFVELVANLKEGTKFYNELTEILVRFQNKCSDIVFARKTERDELLKDLQQSIAREPSAPSIPTPAYQSSPAGGHAPTPPTPAPRTMPPTKPQPPARPPPPVLPANRAPSATAPSPVGAGTAAPAPSQTPGSAPPPQAQGPPYPTAPGYPGYCQMPMPMGYNPYAYGQYNMPYPPVYHQSPGQAPYPGPQQPSYPFPQPPQQSYYPQQ
modifications: full-length GFP fusion
midbody localization of GFP-ALIX (midbodies in HeLa cells): no midbody localization above background

B2: wild-type ALIX: full-length wild-type ALIX tagged with GFP (protein, UniProt Q8WUM4 1-868, looked up)
chain: MATFISVQLKKTSEVDLAKPLVKFIQQTYPSGGEEQAQYCRAAEELSKLRRAAVGRPLDKHEGALETLLRYYDQICSIEPKFPFSENQICLTFTWKDAFDKGSLFGGSVKLALASLGYEKSCVLFNCAALASQIAAEQNLDNDEGLKIAAKHYQFASGAFLHIKETVLSALSREPTVDISPDTVGTLSLIMLAQAQEVFFLKATRDKMKDAIIAKLANQAADYFGDAFKQCQYKDTLPKEVFPVLAAKHCIMQANAEYHQSILAKQQKKFGEEIARLQHAAELIKTVASRYDEYVNVKDFSDKINRALAAAKKDNDFIYHDRVPDLKDLDPIGKATLVKSTPVNVPISQKFTDLFEKMVPVSVQQSLAAYNQRKADLVNRSIAQMREATTLANGVLASLNLPAAIEDVSGDTVPQSILTKSRSVIEQGGIQTVDQLIKELPELLQRNREILDESLRLLDEEEATDNDLRAKFKERWQRTPSNELYKPLRAEGTNFRTVLDKAVQADGQVKECYQSHRDTIVLLCKPEPELNAAIPSANPAKTMQGSEVVNVLKSLLSNLDEVKKEREGLENDLKSVNFDMTSKFLTALAQDGVINEEALSVTELDRVYGGLTTKVQESLKKQEGLLKNIQVSHQEFSKMKQSNNEANLREEVLKNLATAYDNFVELVANLKEGTKFYNELTEILVRFQNKCSDIVFARKTERDELLKDLQQSIAREPSAPSIPTPAYQSSPAGGHAPTPPTPAPRTMPPTKPQPPARPPPPVLPANRAPSATAPSPVGAGTAAPAPSQTPGSAPPPQAQGPPYPTYPGYPGYCQMPMPMGYNPYAYGQYNMPYPPVYHQSPGQAPYPGPQQPSYPFPQPPQQSYYPQQ
modifications: full-length GFP fusion
midbody localization of GFP-ALIX (midbodies in HeLa cells): strongly localized to midbodies

B3: CEP55 160-217 (protein)
chain: FNSSINNIHEMEIQLKDALEKNQQWLVYDQQREVYVKGLLAKIFELEKKTETAAHSLP
Kd (TSG101 154-166): ~1000 nM | Kd (ALIX 797-809): 1000 nM
